From US7432244 (dated 2008) come the findings set out here.

Bridge positions count the residues as written; N and C are the ends. Ends that are not written are not given here.

Experiment [1] has as its target T1, IGF-1 (human, UniProt P05019). Description: competition phage ELISA.
Experiment [2] concerns the target T1, IGF-1. Description: competition, IGF-1 phage vs IGFBP-3.
Experiment [3] addresses T1, IGF-1. In words: competition, IGF-1 phage vs IGFBP-1.
Experiment [4] addresses T1, IGF-1. In words: competition, 125I-IGF-1 binding to MCF-7 cells, 37C.

T1 sequence (P05019 49-118): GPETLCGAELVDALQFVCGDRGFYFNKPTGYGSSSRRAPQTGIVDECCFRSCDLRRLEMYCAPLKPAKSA

FECLTSVEALRGCMY [F1-F]: in experiment [1], the IC50 (as a rule, the concentration that inhibits the measured activity by half) turned out to be 0.286 µM. Regarding FECLTSVEALRGCMYG (disulfide 3-13 (inferred)) [F1-3], the results for the IC50 in experiment [2], in experiment [3] and in experiment [4] were 12.8 µM, 11.7 µM and 45.7 µM, respectively. For the molecule MDCLASVEALKWCMYG (disulfide 3-13 (inferred)) [F1-2], the 50% inhibitory concentration (IC50) in experiment [2] was determined as 9.2 µM; in experiment [3], 15.5 µM; in experiment [4] it was 15.3 µM.

Regarding VRCAYDAGGSRYCWE [F2-B], in experiment [1], the IC50 turned out to be 24.6 µM. In turn, ASCVADAGGGGYCWD [F2-G] gave an IC50 in experiment [1] of 0.986 µM.

As to YRCATDLAGFSYCWA [F2-K], the IC50 in experiment [1] was found to be 1.45 µM. Same read-out and setting: to SDCFESVEALRACMY [F1-G] belongs 0.968 µM; to RNCFESVAALRRCMY [F1-C], 0.108 µM; to HDCFASVEALRRCMY [F1-D], 0.468 µM. On the same count and under the same terms, to WRCAQDAGGWTYCWA [F2-M] belongs 1.04 µM. The same measure, in the same setting: for WRCVDDLGGFQYCWA [F2-H] the value was 0.319 µM; for GGCASDLAGFRYCWE [F2-A], 1.33 µM; for FGCYESVAALRTCMY [F1-B], 0.301 µM. For the molecule LRCAEDLGGYFYCWA [F2-J], the IC50 in experiment [1] was found to be 2.12 µM. Compared with the last molecule, the IC50 is about 7-fold higher. Still for that read-out and setting: to VTCAADALGFLYCWE [F2-I] belongs 1.03 µM; to FRCAWELGWLYVLGL [F2-F], 209 µM; to HPCLESVGALKACMY [F1-A], 0.401 µM.

In experiment [1], VRCVADAGGFLYCWA [F2-N] yielded a concentration for half-maximal inhibition (IC50) of 1.18 µM. ARCARDAGGFYYCWA [F2-L]: the IC50 in experiment [1] amounted to 4.36 µM. On the same count and under the same terms, for LGCASDLAGFWYCWA [F2-E] the value was 0.554 µM.

On to VRCAWDLGGRAYCWA [F2-D], for which, in experiment [1], the IC50 is 249 µM. Still for that read-out and setting: to MDCLASVEALKWCMY [F1-H] belongs 0.147 µM; to SDCFGSVEALKMCMY [F1-E], 0.711 µM; to VKCARDLSGFVYCWA [F2-C], 10000 µM. On to RNCFESVAALRRCMYG (disulfide 3-13 (inferred)) [F1-1], for which the results for the IC50 in experiment [2], in experiment [3] and in experiment [4] were 2.93 µM, 1.4 µM and 5.12 µM, respectively.
